Consider 2 molecules from patent publication WO2006033413A1 (dated 2006).

The target in test [1] is T1, OC-1 peptide (human).
T1 construct: Conjugated to BSA as the coating antigen in the screening ELISA; also called C-terminal 12 amino acid partial peptide of human osteocalcin
T1 peptide: FQEAYRRFYGPV
Kind of test: competitive inhibition ELISA on OC peptide-BSA with free OC peptide (hybridoma screening). For orientation: An ELISA detects its analyte on a solid surface through an enzyme-linked reagent.

Test [2] has as its target human osteocalcin (human) (UniProt P02818). Kind of test: ELISA: 0.5 ug/mL KTM-219 on plate coated with 2 ug/mL human osteocalcin, peroxidase anti-mouse IgG detection (zero-competitor point of the competition ELISA).
The target in test [3] is T1, OC-1 peptide. Kind of test: open sandwich ELISA: MBP-VL adsorbed on plate, VH-AP in solution, p-nitrophenyl phosphate, OD405.

B1: mouse monoclonal antibody KTM-219 (antibody, IgG1, V domains shown)
VH: EVQLEESGAEFVKAGASVKLSCKTSGYTFNNYWIHWVKQSPGQGLEWIGEIDPSDGYSNYNQKFKGKATLTVDKSSSTAYMHLNSLTSEDSAVYYCTSSTSVGGSWGQGTTVTVSS
VL: DIELTQSPLSLPVSLGDQASISCTSSQSLLHSNGDTYLHWYLQKPGQSPKLLIYTLSNRFSGVPDRFSGSGSGTDFTLKISRVEAADLGIYFCSQTTHVPYTFGGGTKLEIKR
notes: Biotin-labelled when used as the detection antibody in the sandwich ELISA; also called anti-OC-1 peptide monoclonal antibody
B1: in test [1], the binding result is reported as “binds”. Besides, the absorbance (450 nm) without OC-1 peptide in test [2] is 2.28 absorbance.

B2: KTM-219 VH-AP fusion protein together with MBP-VL fusion protein (open sandwich pair) (other)
VH: B1 VH
VL: B1 VL
notes: Two separate purified periplasmic proteins; MBP-VL (about 56.5 kDa) is adsorbed on the plate and VH-AP (about 61.9 kDa) is added in solution; also called VH-alkaline phosphatase fusion protein; pET-VH219-AP product; not shown: E. coli alkaline phosphatase (1450 bp fragment of pPhoA); His tag; His-Myc tag
As to B2, in test [3], the binding result is given as “binds”.
